The values below come from paper PMC7367873, “Dissecting the sequence determinants for dephosphorylation by the catalytic subunits of phosphatases PP1 and PP2A” (Nature Communications, 2020).

Test [1] deals with GFP-14-3-3β and its binding proteins. Put plainly: GFP-14-3-3β co-IP with LC-MS/MS label-free quantification, untreated versus PP1c-treated. Further details: species or system human.
In a further test the test system is GFP-14-3-3β. The test is described as follows: GFP-14-3-3β co-IP with LC-MS/MS, untreated GFP-14-3-3β versus GFP control (14-3-3 interactome). The class given is binding, human.
Setting [2] is: pairwise comparison PP1 vs untreated.
The mark [3] stands for this setting: pairwise comparison untreated vs GFP.
Setting [4] is: GFP-14-3-3β co-IP LC-MS/MS, PP1 vs untreated, student's t-test, label-free quantification, 3 replicates each.
[5] abbreviates: GFP-14-3-3β co-IP LC-MS/MS, untreated vs GFP, student's t-test, label-free quantification, 3 replicates each.

B1: AP2A1 (protein, UniProt O95782 1-977, looked up)
AP-2 complex subunit alpha-1: MPAVSKGDGMRGLAVFISDIRNCKSKEAEIKRINKELANIRSKFKGDKALDGYSKKKYVCKLLFIFLLGHDIDFGHMEAVNLLSSNKYTEKQIGYLFISVLVNSNSELIRLINNAIKNDLASRNPTFMCLALHCIANVGSREMGEAFAADIPRILVAGDSMDSVKQSAALCLLRLYKASPDLVPMGEWTARVVHLLNDQHMGVVTAAVSLITCLCKKNPDDFKTCVSLAVSRLSRIVSSASTDLQDYTYYFVPAPWLSVKLLRLLQCYPPPEDAAVKGRLVECLETVLNKAQEPPKSKKVQHSNAKNAILFETISLIIHYDSEPNLLVRACNQLGQFLQHRETNLRYLALESMCTLASSEFSHEAVKTHIDTVINALKTERDVSVRQRAADLLYAMCDRSNAKQIVSEMLRYLETADYAIREEIVLKVAILAEKYAVDYSWYVDTILNLIRIAGDYVSEEVWYRVLQIVTNRDDVQGYAAKTVFEALQAPACHENMVKVGGYILGEFGNLIAGDPRSSPPVQFSLLHSKFHLCSVATRALLLSTYIKFINLFPETKATIQGVLRAGSQLRNADVELQQRAVEYLTLSSVASTDVLATVLEEMPPFPERESSILAKLKRKKGPGAGSALDDGRRDPSSNDINGGMEPTPSTVSTPSPSADLLGLRAAPPPAAPPASAGAGNLLVDVFDGPAAQPSLGPTPEEAFLSELEPPAPESPMALLADPAPAADPGPEDIGPPIPEADELLNKFVCKNNGVLFENQLLQIGVKSEFRQNLGRMYLFYGNKTSVQFQNFSPTVVHPGDLQTQLAVQTKRVAAQVDGGAQVQQVLNIECLRDFLTPPLLSVRFRYGGAPQALTLKLPVTINKFFQPTEMAAQDFFQRWKQLSLPQQEAQKIFKANHPMDAEVTKAKLLGFGSALLDNVDPNPENFVGAGIIQTKALQVGCLLRLEPNAQAQMYRLTLRTSKEPVSRHLCELLAQQF
Take B1: the “Difference (log2), PP1 vs untreated” value in test [1] (setting [2]) is given as -0.1358 log2. Besides, the “Difference (log2), untreated vs GFP” value in the test on GFP-14-3-3β (setting [3]) stood at 1.114 log2.

B2: LIMA1 (protein, UniProt Q9UHB6 1-759, looked up)
LIM domain and actin-binding …: MESSPFNRRQWTSLSLRVTAKELSLVNKNKSSAIVEIFSKYQKAAEETNMEKKRSNTENLSQHFRKGTLTVLKKKWENPGLGAESHTDSLRNSSTEIRHRADHPPAEVTSHAASGAKADQEEQIHPRSRLRSPPEALVQGRYPHIKDGEDLKDHSTESKKMENCLGESRHEVEKSEISENTDASGKIEKYNVPLNRLKMMFEKGEPTQTKILRAQSRSASGRKISENSYSLDDLEIGPGQLSSSTFDSEKNESRRNLELPRLSETSIKDRMAKYQAAVSKQSSSTNYTNELKASGGEIKIHKMEQKENVPPGPEVCITHQEGEKISANENSLAVRSTPAEDDSRDSQVKSEVQQPVHPKPLSPDSRASSLSESSPPKAMKKFQAPARETCVECQKTVYPMERLLANQQVFHISCFRCSYCNNKLSLGTYASLHGRIYCKPHFNQLFKSKGNYDEGFGHRPHKDLWASKNENEEILERPAQLANARETPHSPGVEDAPIAKVGVLAASMEAKASSQQEKEDKPAETKKLRIAWPPPTELGSSGSALEEGIKMSKPKWPPEDEISKPEVPEDVDLDLKKLRRSSSLKERSRPFTVAASFQSTSVKSPKTVSPPIRKGWSMSEQSEESVGGRVAERKQVENAKASKKNGNVGKTTWQNKESKGETGKRSKEGHSLEMENENLVENGADSDEDDNSFLKQQSPQEPKSLNWSSFVDNTFAEEFTTQNQKSQDVELWEGEVVKELSVEEQIKRNRYYDEDEDEE
Consider B2, for which the “Difference (log2), PP1 vs untreated” value in test [1] (setting [4]) is -0.1559 log2. Also, in the test with GFP-14-3-3β (setting [5]), the “Difference (log2), untreated vs GFP” value is listed as -0.3717 log2.

B3: SF3B2 (protein, UniProt Q13435 1-895, looked up)
Splicing factor 3B subunit 2: MATEHPEPPKAELQLPPPPPPGHYGAWAAQELQAKLAEIGAPIQGNREELVERLQSYTRQTGIVLNRPVLRGEDGDKAAPPPMSAQLPGIPMPPPPLGLPPLQPPPPPPPPPPGLGLGFPMAHPPNLGPPPPLRVGEPVALSEEERLKLAQQQAALLMQQEERAKQQGDHSLKEHELLEQQKRAAVLLEQERQQEIAKMGTPVPRPPQDMGQIGVRTPLGPRVAAPVGPVGPTPTVLPMGAPVPRPRGPPPPPGDENREMDDPSVGPKIPQALEKILQLKESRQEEMNSQQEEEEMETDARSSLGQSASETEEDTVSVSKKEKNRKRRNRKKKKKPQRVRGVSSESSGDREKDSTRSRGSDSPAADVEIEYVTEEPEIYEPNFIFFKRIFEAFKLTDDVKKEKEKEPEKLDKLENSAAPKKKGFEEEHKDSDDDSSDDEQEKKPEAPKLSKKKLRRMNRFTVAELKQLVARPDVVEMHDVTAQDPKLLVHLKATRNSVPVPRHWCFKRKYLQGKRGIEKPPFELPDFIKRTGIQEMREALQEKEEQKTMKSKMREKVRPKMGKIDIDYQKLHDAFFKWQTKPKLTIHGDLYYEGKEFETRLKEKKPGDLSDELRISLGMPVGPNAHKVPPPWLIAMQRYGPPPSYPNLKIPGLNSPIPESCSFGYHAGGWGKPPVDETGKPLYGDVFGTNAAEFQTKTEEEEIDRTPWGELEPSDEESSEEEEEEESDEDKPDETGFITPADSGLITPGGFSSVPAGMETPELIELRKKKIEEAMDGSETPQLFTVLPEKRTATVGGAMMGSTHIYDMSTVMSRKGPAPELQGVEVALAPEELELDPMAMTQKYEEHVREQQAQVEKEDFSDMVAEHAAKQKQKKRKAQPQDSRGGSKKYKEFKF
For B3, the “Difference (log2), PP1 vs untreated” value in test [1] (setting [4]) is on record as -0.1579 log2. In the test with GFP-14-3-3β (setting [5]), the “Difference (log2), untreated vs GFP” value turned out to be 2.239 log2.

B4: MARS (protein, UniProt P56192 1-900, looked up)
Methionine--tRNA ligase, …: MRLFVSDGVPGCLPVLAAAGRARGRAEVLISTVGPEDCVVPFLTRPKVPVLQLDSGNYLFSTSAICRYFFLLSGWEQDDLTNQWLEWEATELQPALSAALYYLVVQGKKGEDVLGSVRRALTHIDHSLSRQNCPFLAGETESLADIVLWGALYPLLQDPAYLPEELSALHSWFQTLSTQEPCQRAAETVLKQQGVLALRPYLQKQPQPSPAEGRAVTNEPEEEELATLSEEEIAMAVTAWEKGLESLPPLRPQQNPVLPVAGERNVLITSALPYVNNVPHLGNIIGCVLSADVFARYSRLRQWNTLYLCGTDEYGTATETKALEEGLTPQEICDKYHIIHADIYRWFNISFDIFGRTTTPQQTKITQDIFQQLLKRGFVLQDTVEQLRCEHCARFLADRFVEGVCPFCGYEEARGDQCDKCGKLINAVELKKPQCKVCRSCPVVQSSQHLFLDLPKLEKRLEEWLGRTLPGSDWTPNAQFITRSWLRDGLKPRCITRDLKWGTPVPLEGFEDKVFYVWFDATIGYLSITANYTDQWERWWKNPEQVDLYQFMAKDNVPFHSLVFPCSALGAEDNYTLVSHLIATEYLNYEDGKFSKSRGVGVFGDMAQDTGIPADIWRFYLLYIRPEGQDSAFSWTDLLLKNNSELLNNLGNFINRAGMFVSKFFGGYVPEMVLTPDDQRLLAHVTLELQHYHQLLEKVRIRDALRSILTISRHGNQYIQVNEPWKRIKGSEADRQRAGTVTGLAVNIAALLSVMLQPYMPTVSATIQAQLQLPPPACSILLTNFLCTLPAGHQIGTVSPLFQKLENDQIESLRQRFGGGQAKTSPKPAVVETVTTAKPQQIQALMDEVTKQGNIVRELKAQKADKNEVAAEVAKLLDLKKQLAVAEGKPPEAPKGKKKK
As for B4, the “Difference (log2), PP1 vs untreated” value in test [1] (setting [2]) is on record as -0.131 log2. Further, the “Difference (log2), untreated vs GFP” value with GFP-14-3-3β (setting [3]) is given as 0.1917 log2.

B5: GEMIN4 (protein, UniProt P57678 1-1058, looked up)
Gem-associated protein 4: MDLGPLNICEEMTILHGGFLLAEQLFHPKALAELTKSDWERVGRPIVEALREISSAAAHSQPFAWKKKALIIIWAKVLQPHPVTPSDTETRWQEDLFFSVGNMIPTINHTILFELLKSLEASGLFIQLLMALPTTICHAELERFLEHVTVDTSAEDVAFFLDVWWEVMKHKGHPQDPLLSQFSAMAHKYLPALDEFPHPPKRLRSDPDACPTMPLLAMLLRGLTQIQSRILGPGRKCCALANLADMLTVFALTEDDPQEVSATVYLDKLATVISVWNSDTQNPYHQQALAEKVKEAERDVSLTSLAKLPSETIFVGCEFLHHLLREWGEELQAVLRSSQGTSYDSYRLCDSLTSFSQNATLYLNRTSLSKEDRQVVSELAECVRDFLRKTSTVLKNRALEDITASIAMAVIQQKMDRHMEVCYIFASEKKWAFSDEWVACLGSNRALFRQPDLVLRLLETVIDVSTADRAIPESQIRQVIHLILECYADLSLPGKNKVLAGILRSWGRKGLSEKLLAYVEGFQEDLNTTFNQLTQSASEQGLAKAVASVARLVIVHPEVTVKKMCSLAVVNLGTHKFLAQILTAFPALRFVEEQGPNSSATFMVSCLKETVWMKFSTPKEEKQFLELLNCLMSPVKPQGIPVAALLEPDEVLKEFVLPFLRLDVEEVDLSLRIFIQTLEANACREEYWLQTCSPFPLLFSLCQLLDRFSKYWQLPKEKRCLSLDRKDLAIHILELLCEIVSANAETFSPDVWIKSLSWLHRKLEQLDWTVGLRLKSFFEGHFKCEVPATLFEICKLSEDEWTSQAHPGYGAGTGLLAWMECCCVSSGISERMLSLLVVDVGNPEEVRLFSKGFLVALVQVMPWCSPQEWQRLHQLTRRLLEKQLLHVPYSLEYIQFVPLLNLKPFAQELQLSVLFLRTFQFLCSHSCRDWLPLEGWNHVVKLLCGSLTRLLDSVRAIQAAGPWVQGPEQDLTQEALFVYTQVFCHALHIMAMLHPEVCEPLYVLALETLTCYETLSKTNPSVSSLLQRAHEQRFLKSIAEGIGPEERRQTLLQKMSSF
Regarding B5, in test [1] (log2 difference, pairwise comparison PP1 vs untreated, label-free quantification, 3 replicates each), the “Difference (log2), PP1 vs untreated” value stood at 1.751. In addition, in the test with GFP-14-3-3β (log2 difference, pairwise comparison untreated vs GFP, label-free quantification, 3 replicates each), the “Difference (log2), untreated vs GFP” value is given as 0.9703.

B6: RBM14 (protein, UniProt Q96PK6 1-669, looked up)
RNA-binding protein 14: MKIFVGNVDGADTTPEELAALFAPYGTVMSCAVMKQFAFVHMRENAGALRAIEALHGHELRPGRALVVEMSRPRPLNTWKIFVGNVSAACTSQELRSLFERRGRVIECDVVKDYAFVHMEKEADAKAAIAQLNGKEVKGKRINVELSTKGQKKGPGLAVQSGDKTKKPGAGDTAFPGTGGFSATFDYQQAFGNSTGGFDGQARQPTPPFFGRDRSPLRRSPPRASYVAPLTAQPATYRAQPSVSLGAAYRAQPSASLGVGYRTQPMTAQAASYRAQPSVSLGAPYRGQLASPSSQSAAASSLGPYGGAQPSASALSSYGGQAAAASSLNSYGAQGSSLASYGNQPSSYGAQAASSYGVRAAASSYNTQGAASSLGSYGAQAASYGAQSAASSLAYGAQAASYNAQPSASYNAQSAPYAAQQAASYSSQPAAYVAQPATAAAYASQPAAYAAQATTPMAGSYGAQPVVQTQLNSYGAQASMGLSGSYGAQSAAAATGSYGAAAAYGAQPSATLAAPYRTQSSASLAASYAAQQHPQAAASYRGQPGNAYDGAGQPSAAYLSMSQGAVANANSTPPPYERTRLSPPRASYDDPYKKAVAMSKRYGSDRRLAELSDYRRLSESQLSFRRSPTKSSLDYRRLPDAHSDYARYSGSYNDYLRAAQMHSGYQRRM
As for B6, the “Difference (log2), PP1 vs untreated” value in test [1] (setting [2]) is recorded as -0.1292 log2. Moreover, in the test on GFP-14-3-3β (setting [3]), the “Difference (log2), untreated vs GFP” value amounted to 0.5797 log2.
